B1: KGD-Sak · plasmin complex (protein)
chain 1: SSSFDKGKYKKGDDASYFEPTGPTLMVNVTGVDGKRNELLSPRYVEFPIKPGTTLTKEKIEYYVEWALDATAYKEFRVVELDPSAKIEVTYYDKNKKKEETKSFPITEKGDVVPDLSEHIKNPGFNLITKVVIEKK
chain 2: KVYLSECKTGNGKNYRGTMSKTKNGITCQKWSSTSPHRPRFSPATHPSEGLEENYCRNPDNDPQGPWCYTTDPEKRYDYCDILECEEECMHCSGENYDGKISKTMSGLECQAWDSQSPHAHGYIPSKFPNKNLKKNYCRNPDRELRPWCFTTDPNKRWELCDIPRCTTPPPSSGPTYQCLKGTGENYRGNVAVTVSGHTCQHWSAQTPHTHNRTPENFPCKNLDENYCRNPDGKRAPWCHTTNSQVRWEYCKIPSCDSSPVSTEQLAPTAPPELTPVVQDCYHGDGQSYRGTSSTTTTGKKCQSWSSMTPHRHQKTPENYPNAGLTMNYCRNPDADKGPWCFTTDPSVRWEYCNLKKCSGTEASVVAPPPVVLLPDVETPSEEDCMFGNGKGYRGKRATTVTGTPCQDWAAQEPHRHSIFTPETNPRAGLEKNYCRNPDGDVGGPWCYTTNPRKLYDYCDVPQCAAPSFDCGKPQVEPKKCPGRVVGGCVAHPHSWPWQVSLRTRFGMHFCGGTLISPEWVLTAAHCLEKSPRPSSYKVILGAHQEVNLEPHVQEIEVSRLFLEPTRKDIALLKLSSPAVITDKVIPACLPSPNYVVADRTECFITGWGETQGTFGAGLLKEAQLPVIENKVCNRYEFLNGRVQSTELCAGHLAGGTDSCQGDSGGPLVCFEKDKYILQGVTSWGLGCARPNKPGVYVRVSRFVTWIEGVMRNN
B2: Sak · plasmin complex (protein)
chain 1: B1 chain 1 with T24Y, R36G, R43H, D111F
chain 2: B1 chain 2
B3: RGD-Sak · plasmin complex (protein)
chain 1: B1 chain 1 with K109R
chain 2: B1 chain 2

Where a chain is given by its changes, count along the chain named. Values joined by “and” are separate entries in the source; they are usually repeats but may differ in a detail not shown here. Equal values may be shown once.

This series deals with T1, plasminogen, P00747.
T1 chain: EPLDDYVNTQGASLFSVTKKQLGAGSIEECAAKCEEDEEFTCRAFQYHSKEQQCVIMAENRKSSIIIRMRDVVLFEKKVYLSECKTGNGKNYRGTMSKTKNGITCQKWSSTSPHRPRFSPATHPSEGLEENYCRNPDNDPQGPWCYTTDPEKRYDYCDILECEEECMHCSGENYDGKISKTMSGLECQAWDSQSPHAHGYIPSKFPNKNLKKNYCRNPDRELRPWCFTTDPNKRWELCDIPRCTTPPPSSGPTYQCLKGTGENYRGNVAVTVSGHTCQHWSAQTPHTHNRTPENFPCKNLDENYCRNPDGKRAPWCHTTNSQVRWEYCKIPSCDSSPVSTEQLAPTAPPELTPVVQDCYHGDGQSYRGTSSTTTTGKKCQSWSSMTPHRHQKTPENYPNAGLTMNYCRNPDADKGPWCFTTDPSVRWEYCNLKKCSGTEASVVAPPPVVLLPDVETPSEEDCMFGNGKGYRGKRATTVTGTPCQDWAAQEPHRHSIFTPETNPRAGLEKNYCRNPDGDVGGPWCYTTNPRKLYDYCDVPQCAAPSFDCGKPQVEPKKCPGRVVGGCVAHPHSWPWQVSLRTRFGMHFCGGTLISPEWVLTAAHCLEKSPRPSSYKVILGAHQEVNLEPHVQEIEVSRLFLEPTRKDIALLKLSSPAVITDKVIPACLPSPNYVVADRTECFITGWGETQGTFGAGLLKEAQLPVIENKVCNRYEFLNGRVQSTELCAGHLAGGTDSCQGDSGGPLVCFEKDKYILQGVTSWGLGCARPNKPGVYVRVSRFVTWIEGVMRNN
For B1, the Kcat is 1.46 s⁻¹, the Kcat/Km amounted to 0.1 and the Michaelis-Menten constant (Km) turned out to be 14.1 µM.
For the protein B2, the Kcat was 1.03 s⁻¹ and 1.06 s⁻¹; the Kcat/Km is 0.16; the Michaelis constant (Km) is 6.42 µM and 6.51 µM.
In the case of B3, the Kcat was 1.41 s⁻¹, the Kcat/Km was 0.11 and the Km was determined as 12.5 µM.

In general, Km refers to the substrate concentration at which the rate is half of its maximum.

The record behind these values is patent publication US20050202000.
